In patent publication US20250027068:
Substitutions are numbered along the chain they refer to.

B1: PRT-162 (protein)
chain: MANQEIRYSEVTPYHVTSVWTKGVTPPANFTQGEDVFHAPYVANQGWYDITKTFNGKDDLLCGAATAGNMLHWWFDQNKDQIKRYLEEHPEKQKINFNGEQMFDVKEAIDTKNSQTNSELFNYFKEKAFPYLSTKHLGVFPDHVIDMFINGYRLSLTNHGPTPVKEGSKDPRGGIFDAVFTRGDQSKLLTSRHDFKEKNLKEISDLIKKELTEGKALGLSHTYANVRINHVINLWGADFDSNGNLKAIYVTDSDSNASIGMKKYFVGVNSAGKVAISAKEIKEDNIGAQVLGLFTLSTGQDSWNQTN
B2: PRT-165 (protein)
chain: B1 chain with K57G
B3: PRT-164 (protein)
chain: B1 chain with T116E
B4: PRT-166 (protein)
chain: B1 chain with T53A, N55D, K57G
B5: PRT-163 (protein)
chain: B1 chain with S114D
B6: PRT-16 (protein)
chain: MANQEIRYSEETPYHITSVWTKGVTPPTDFTQGEDVFHAPYVANQGWYDITKTFNGKDDLLCGAATAGNMLHWWFDQNKDQIERYLKKHPEKQKINFNGEQMFDVKEAIDTKDSQTDSKLFEYFKDKAFPYLSTKHLGVFPDHVLDMFINGYRLNLTNHGPTPVKEGSKDPRGGIFDAVFTRGDQSKLLTSRHDFKEKNLKEISDLIKQELQEGKALGLSHTYANVRINHVINLWGADFDSNGNLKAIYVTDSDSNASIGMKKYYVGVNAAGKVAISAKEIEEDNIGAQVLGLFTLSLGQDIWNQTN
B7: PRT-15 (protein)
chain: MANQEIRYSEVTPYTITSVWTKGVTPPTNFTQGEDVFHAPYVANQGWYDITKTFNGKDDLLCGAATAGNMLHWWFDQNKDEIERYLKEHPEKQKINFNGEQMFDVKEAIDTKDSQTDSKLFEYFKDKAFPYLSTKHLGVFPDHVIDMFINGYRLSLTNHGPTPVKRGSKDPRGGIFDAVFTRGDQSKLLTSRHDFKEKNLNEISDLIKQELTEGKALGLSHTYANVRINHVINLWGADFNSNGNLKAIYVTDSDSNASIGMKKYFVGVNKAGKVAISAKEIKGDNIGAQVLGLFTLSTGQDIWEQTN
B8: PRT-158 (protein)
chain: MANQEIRYSEVTPYHVTSVWTKGVTPPTDFIKGEDVFHAPYKAHQGWYDITKTFNGKDDLLCGAATAGNMLHWWFDQNKDQIKRYLEEHPEKQKINFNGEQMFDVKEAIDTKNHQLDSKLFEYFKEKAFPYLSTKHLGVFPDHVIDMFINGYRLSLTNHGPTPVKEGSKDPRGGIFDAVFTRGDQSKLLTSRHDFKEKNLKEISDLIKKELQEGKALGLSHTYANVRINHVINLWGADFDSNGNLKAIYVTDSDSNASIGMKKYFVGVNSAGKVAISAKEIKEDNIGAQVLGLFTLSTGQDSWNQTN
B9: PRT-160 (protein)
chain: B8 chain with S18T, K22D, T25K
B10: PRT-159 (protein)
chain: B8 chain with H44G
B11: PRT-161 (protein)
chain: B8 chain with S18I, K22D, T25K
B12: PRT-14 (protein)
chain: MANQEIRYSEVTPYTVTSVWTKGVTPPADFTQGEDVFHAPYIANQGWYDITKTFNGKDDLLCGAATAGNMLHWWFDQNKEQIERYLKKHPEKQKINFNGEQMFDVKEAIDTKDSQTDSELFEYFKEKAFPYLSTKHLGVFPDHVLDMFINGYRLSLTNHGPTPVKEGSKDPRGGIFDAVFTRGDQSKLLTNRHDFKEKTLSEISDLIKKELTEGKALGLSHTYANVRINHVINLWGADFDSEGNLEAIYVTDSDSNASIGMKKYFVGVNSAGKVAISAKEIKEDNIGAQVLGLFTLSTGQDIWNQTN
B13: PRT-152 (protein)
chain: MANQEIRYSEVTPYHVTSVWTKGVTPPANFTQGEDVFHAPYVANQGWYDITKTFNGKDDLLCGAATAGNMLHWWFDQNKTQIERYLKKHPEKQKINFNGEQMFDVKEAIDTKNHQLDSKLFEYFKEKAFPYLSTKHLGVFPDHVIDMFINGYRLSLTNHGPTPVKEGSKDPRGGIFDAVFTRGDQSKLLTSRHDFKEKNLKEISDLIKKELTEGKALGLSHTYANVRINHVINLWGADFDSNGNLKAIYVTDSDSNASIGMKKYFVGVNSAGKVAISAKEIKEDNIGAQVLGLFTLSTGKDSWEKTN
B14: PRT-157 (protein)
chain: B8 chain with T28E, I31T, K32Q, H44N, Q212T
B15: PRT-153 (protein)
chain: B13 chain with E304K
B16: PRT-156 (protein)
chain: B8 chain with I31T, K32Q, H44N, Q212T
B17: PRT-155 (protein)
chain: B13 chain with K22D, K79S, R84A, D301K
B18: PRT-154 (protein)
chain: B13 chain with R84A, D301K
B19: PRT-17 (protein)
chain: MANQEIRYSEVTPYHITSVWTKGVTPPTNFTQGEDVFHAPYKANQGWYDITKTFNGKDDLLCGAATAGNMLHWWFDQNKEEIERYLKEHPEKQKINFNGEQMFDVKEAIDTKGSQTDSKLFNYFKDKAFPYLSTKHLGVFPDHVLDMFINGYRLSLTNHGPTPVKEQSKDPRGGIFDAVFTRGDQSKLLTSRHDFKEKNLKEISDLIKKELTEGKALGLSHTYANVRINHVINLWGADFDSEGNLEAIYVTDSDSNASIGMKKYFVGVNSAGKVAISAKEIKGDNIGAQVLGLFTLSTGQDIWEKTN
B20: PRT-18 (protein)
chain: MANQEIRYSEETPYHVTSVWTKGVTPPTNFTQGEDVFHAPYIANQGWYDITKTFNGKDDLLCGAATAGNMLHWWFDQNKEEIEKYLEEHPEKQKINFNGEQMFDVKEVIDTKDSQLDSKLFEYFKEKAFPYLSTKHLGVFPDHVIDMFINGYRLNLTNHGPTPVKEGSKDPRGGIFDAVFTRGDQSKLLTERHDFKEKTLKEISQLIKQELTEGKALGLSHTYANVRINHVINLWGADFDSEGNLEAIYVTDSDSNASIGMKKYFVGVNSAGKVAISAKEIEEDNIGAQVLGLFTLSTGQDIWEQTN

Molecular target: pooled human IgG

Row | Protein | Enzyme Activity Endpoint Assay (purified): Fab'2 [ng/µL] | Enzyme Activity Endpoint Assay (purified): Fc [ng/µL] | Enzyme Activity Endpoint Assay (purified): IgG [ng/µL] | Enzyme Activity Endpoint Assay (purified): scIgG [ng/µL] | Enzyme Activity Endpoint Assay: Fab′2 [ng/µL] | Enzyme Activity Endpoint Assay: Fc [ng/µL] | Enzyme Activity Endpoint Assay: IgG [ng/µL] | Enzyme Activity Endpoint Assay: scIgG [ng/µL]
1 | B1 | 729 | 196 | 0 | 0 |  |  |  | 
2 | B2 | 783 | 204 | 0 | 0 |  |  |  | 
3 | B3 | 508 | 203 | 0 | 85 |  |  |  | 
4 | B4 | 597 | 161 | 0 | 0 |  |  |  | 
5 | B5 | 706 | 184 | 29 | 0 |  |  |  | 
6 | B6 |  |  |  |  | 0 | 0 | 151 | 0
7 | B7 |  |  |  |  | 52 | 136 | 18 | 17
8 | B8 | 637 | 163 | 0 | 0 |  |  |  | 
9 | B9 | 642 | 168 | 0 | 0 |  |  |  | 
10 | B10 | 637 | 184 | 0 | 0 |  |  |  | 
11 | B11 | 669 | 172 | 0 | 0 |  |  |  | 
12 | B12 |  |  |  |  | 18 | 94 | 13 | 43
13 | B13 | 614 | 158 | 0 | 0 |  |  |  | 
14 | B14 | 806 | 198 | 0 | 0 |  |  |  | 
15 | B15 | 619 | 190 | 0 | 0 |  |  |  | 
16 | B16 | 772 | 205 | 0 | 0 |  |  |  | 
17 | B17 | 751 | 197 | 0 | 18 |  |  |  | 
18 | B18 | 733 | 191 | 0 | 0 |  |  |  | 
19 | B19 |  |  |  |  | 53 | 116 | 34 | 0
20 | B20 |  |  |  |  | 44 | 105 | 12 | 11
